The record followed here is patent US20230365711A1 (Hoffmann-La Roche, published 2023).

Substitutions are numbered along the chain they refer to. Numbers in names are those of the source.

Experiment [1] concerns the target T1, huNABA-avi-his (hybrid protein N-A1-B3-A2: N and A1 domains of human BGP, B3 domain of human CEA, A2 domain … (human, biotinylated at the avi tag (in vivo, co-transfected biotin ligase))).
T1 construct: also called NABA-avi-his reagent; biotinylated NABA
T1 chain: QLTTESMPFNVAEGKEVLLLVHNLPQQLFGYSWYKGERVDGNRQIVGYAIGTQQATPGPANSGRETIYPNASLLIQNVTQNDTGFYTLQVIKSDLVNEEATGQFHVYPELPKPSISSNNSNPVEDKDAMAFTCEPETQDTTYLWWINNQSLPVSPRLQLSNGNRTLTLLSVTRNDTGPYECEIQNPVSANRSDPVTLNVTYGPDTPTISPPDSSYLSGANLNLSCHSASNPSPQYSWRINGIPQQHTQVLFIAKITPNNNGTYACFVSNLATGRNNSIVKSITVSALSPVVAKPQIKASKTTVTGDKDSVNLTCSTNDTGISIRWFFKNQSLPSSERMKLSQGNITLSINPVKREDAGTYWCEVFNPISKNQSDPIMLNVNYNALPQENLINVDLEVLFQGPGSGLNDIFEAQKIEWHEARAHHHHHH
In words: Proteon SPR, antibody analyte on biotinylated NABA (Neutravidin chip).

For experiment [2], the target named is T2, human carcinoembryonic antigen (CEA), membrane-bound on cells (human, UniProt P06731 35-685).
T2 construct: whole, on cells; also called CEACAM-5; CD66e
T2 sequence (looked up): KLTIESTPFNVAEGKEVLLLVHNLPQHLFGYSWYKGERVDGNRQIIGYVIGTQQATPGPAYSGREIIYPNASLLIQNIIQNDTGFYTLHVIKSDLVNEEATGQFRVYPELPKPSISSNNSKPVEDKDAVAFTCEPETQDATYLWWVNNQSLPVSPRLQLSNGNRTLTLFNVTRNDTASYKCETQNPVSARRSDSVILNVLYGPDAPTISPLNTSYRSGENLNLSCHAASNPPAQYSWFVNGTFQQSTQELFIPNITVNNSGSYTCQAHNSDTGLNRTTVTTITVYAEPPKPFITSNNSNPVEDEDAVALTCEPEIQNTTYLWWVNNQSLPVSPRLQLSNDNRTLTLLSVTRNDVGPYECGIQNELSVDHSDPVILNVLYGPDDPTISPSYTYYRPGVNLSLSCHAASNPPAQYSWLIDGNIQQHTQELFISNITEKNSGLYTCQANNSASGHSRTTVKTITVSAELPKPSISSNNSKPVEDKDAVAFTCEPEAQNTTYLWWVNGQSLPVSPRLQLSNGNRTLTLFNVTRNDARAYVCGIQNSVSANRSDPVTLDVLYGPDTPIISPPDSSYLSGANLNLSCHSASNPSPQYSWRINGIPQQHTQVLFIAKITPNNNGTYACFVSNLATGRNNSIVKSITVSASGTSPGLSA
In words: FACS on MKN45 cells.

Experiment [3] concerns the target T1, huNABA-avi-his (hybrid protein …). In words: Proteon SPR, antibody analyte on biotinylated NABA (Neutravidin chip); column Ka (M).
Experiment [4] has the same target. Kind of experiment: Proteon SPR, antibody analyte on biotinylated NABA (Neutravidin chip). An excerpt:
(§1) Proteon (Biacore) sensorgrams were obtained for the binding of the combined framework and CDR-H3 variants to the CEA antigen-harbouring chimeric protein NABA. […] The precursor clone 5L1A10 and the parental antibody CH7A were included for direct comparison. All antibodies tested in this assay had 2F1 as the light chain FIG. 25.

For experiment [5] the target is unchanged. Kind of experiment: Proteon SPR, antibody analyte on biotinylated NABA (Neutravidin chip); column Ka (M).
Text: as §1

In experiment [6] the target is T2, human carcinoembryonic antigen (CEA), …. Kind of experiment: flow cytometry on MKN45 cells, IgG1/kappa. As for the experimental part:
An affinity matured heavy chain variable region construct, CH7A rF9, and an affinity matured light chain variable region construct, CL1A rH11, were paired with the parent light chain variable region construct and the heavy chain variable region construct, respectively, and with each other. All antibodies were converted into human IgG1/kappa and binding to the CEA-positive cell-line MKN45 was measured by flow cytometry. […] The matured light chain shifts the EC50 values to lower numbers, whereas the matured heavy chains (rF9 in FIG. 6, and rB9 in FIG. 15) shift the total fluorescence signal intensity in a flow-cytometry measurement. […] The combination of these two chains increases the affinity even further.

Experiment [7] concerns the target T1, huNABA-avi-his (hybrid protein …). In words: Biacore, column Affinity, CDR-L1 and CDR-L2 rows; antigen not named on the sheet, NABA-avi-his per paragraph 230.
Experiment [8] has the same target. Kind of experiment: Proteon SPR, antibody analyte on biotinylated NABA (Neutravidin chip); column Ka (M). An excerpt: (§2) Shown in FIG. 22 are Proteon (Biacore) sensorgrams obtained for the binding of the CDR-H3 antibody variants to the CEA antigen-harbouring chimeric protein NABA. […] The affinity matured precursor clone 5HFF12 and the parental antibody CH7A were included for direct comparison. All antibodies tested in this assay had 2F1 as the light chain. […] The relative affinity of each, measured in the bivalent form, is as follows: 5HFF12>CH7A (Y98A/D99Y)>CH7A (Y98A)>CH7A>CH7A (E102Q)>CH7A (D99Y)>CH7A (D99H)>CH7A (A103T)>CH7A (V101F)>CH7A (W95Y).

For experiment [9] the target is unchanged. Kind of experiment: Proteon SPR, antibody analyte on biotinylated NABA (Neutravidin chip).
Text: as §2

Experiment [10] has the same target. In words: Biacore, Fab on immobilized NABA-avi-his; column Monovalent Affinity.

B1: anti-CEA antibody with heavy chain CH1A1 and light chain 2F1 (antibody, V domains shown)
VH: QVQLVQSGAEVKKPGASVKVSCKASGYTFTEFGMNWVRQAPGQGLEWMGWINTKTGEATYVEEFKGRVTFTLDTSTSTAYMELRSLRSDDTAVYYCARWDFYDYVEAMDYWGQGTTVTVSS
VL: DIQMTQSPSSLSASVGDRVTITCKASAAVGTYVAWYQQKPGKAPKLLIYSASYRKRGVPSRFSGSGSGTDFTLTISSLQPEDFATYYCHQYYTYPLFTFGQGTKLEIKR
notes: CH1A with M69F/T71L double point mutation; also called precursor clone CH1A1
B1 registered a Kd in experiment [1] of 4.24 nM. In addition, in [2], the “EC50 (read off the curve)” value was around 1 mg/L. Besides, in experiment [3], the kon came to 81900 M⁻¹ s⁻¹.

B2: anti-CEA antibody with heavy chain CH1A1C and light chain 2F1 (antibody, V domains shown)
VH: B1 VH with A9P, V11L, F70M, L72T
VL: B1 VL
Consider B2, for which the equilibrium dissociation constant (Kd) in [1] is 13 nM. Besides, in [2], the “EC50 (read off the curve)” value is around 1 mg/L. Besides, the on-rate constant (kon) in [3] came out at 44900 M⁻¹ s⁻¹.

B3: anti-CEA antibody with heavy chain CH1A1A and light chain 2F1 (antibody, V domains shown)
VH: B1 VH with L72T
VL: B1 VL
For the molecule B3, the affinity in [1], expressed as Kd, was 5.91 nM. Further, the “EC50 (read off the curve)” value in experiment [2] is around 1 mg/L. In [3], this molecule gave a kon of 81800 M⁻¹ s⁻¹.

B4: anti-CEA antibody with heavy chain CH1A1D and light chain 2F1 (antibody, V domains shown)
VH: B1 VH with A16E, S17T, V20I, F70M, L72T
VL: B1 VL
In [1], B4 displayed a dissociation constant (Kd) of 9.28 nM. For the same molecule, the “EC50 (read off the curve)” value in experiment [2] was around 1 mg/L. Further, the kon in [3] turned out to be 53100 M⁻¹ s⁻¹.

B5: anti-CEA antibody with heavy chain CH1A1B and light chain 2F1 (antibody, V domains shown)
VH: B1 VH with Q3K, V5Q, F70M, L72T
VL: B1 VL
Regarding B5, the Kd in [1] was 8.9 nM. Besides, the “EC50 (read off the curve)” value in experiment [2] was around 1 mg/L. For the same molecule, the kon in experiment [3] was found to be 53700 M⁻¹ s⁻¹.

B6: anti-CEA antibody with heavy chain CH1A1F and light chain 2F1 (antibody, V domains shown)
VH: B1 VH with F70M, L72T, M81L
VL: B1 VL
In [1], B6 yielded a Kd of 7.58 nM. Moreover, the “EC50 (read off the curve)” value in experiment [2] is around 1 mg/L. The kon in experiment [3] amounted to 70800 M⁻¹ s⁻¹.

B7: CH1A1A (Y98A/D99Y) 2F1 (antibody, V domains shown)
VH: B1 VH with L72T, Y102A, D103Y
VL: B1 VL
notes: also called CH1A1A (98/99); CH1A1A (Y98A/D99Y)x2F1
In [4], B7 showed a Kd of 0.537 nM. The molecule further returned a kon in experiment [5] of 628000 M⁻¹ s⁻¹.

B8: CH1A1B (Y98A/D99Y) 2F1 (antibody, V domains shown)
VH: B1 VH with Q3K, V5Q, F70M, L72T, Y102A, D103Y
VL: B1 VL
In experiment [4], B8 displayed a Kd of 0.507 nM. The kon in experiment [5] worked out at 711000 M⁻¹ s⁻¹.

B9: antibody with affinity matured heavy chain variable region CH7A rF9 and affinity matured light chain variable region CL1A rH11 (antibody, V domains shown)
VH: QVQLVQSGSELKKPGASVKVSCKASGYTFTEYGMNWVRQAPGQGLEWMGWINTKSGEATYVEEFKGRFVFSLDTSVSTAYLQISSLKAEDTAVYYCARWDFYDYVEAMDYWGQGTTVTVSS
VL: DIQMTQSPSSLSASVGDRVTITCKASQTVSANVAWYQQKPGKAPKLLIYLASYRYRGVPSRFSGSGSGTDFTLTISSLQPEDFATYYCHQYYTYPLFTFGQGTKLEIK
notes: The suffix G2(1) is not explained; also called CH7ArF9 CL1A rH11; CH7Arf9, CL1A rH11G2(1)
In the case of B9, the “EC50 (read off the curve)” value in experiment [6] was around 0.5 mg/L.

B10: pAC23 (2F11) (Fab, V domains shown)
VH: B9 VH with Y32F, S55T
VL: B9 VL with T28I, V29A, A31T, L50W, R56S
B10 displayed a Kd in [7] of 290 nM.

B11: antibody with heavy chain CH7A (Y98A/D99Y) and light chain 2F1 (antibody, V domains shown)
VH: B9 VH with Y32F, S55T, Y102A, D103Y
VL: B1 VL
notes: Bivalent form; also called double mutant (Y98A/D99Y)
Turning to B11, the figures for the kon in experiment [8] and in experiment [5] were 236000 M⁻¹ s⁻¹ and 481000 M⁻¹ s⁻¹, respectively. Also, the Kd in experiment [4] came to 0.465 nM; in experiment [9] it was 0.186 nM.

B12: L2D2 (Fab, V domains shown)
VH: B9 VH with Y32F, S55T
VL: B9 VL with Q27H, T28N, S30G, A31T, L50S, Y53H, R56S
As to B12, the affinity in experiment [7], expressed as Kd, was 2260 nM.

B13: 3A1 (Fab, V domains shown)
VH: B9 VH with Y32F, S55T
VL: B9 VL with Q27A, T28N, S30G, A31N, Y53N, Y55S, R56G
notes: also called pAC21 (3A1); 3A1 wt/lc
B13 had an equilibrium dissociation constant (Kd) in experiment [7] of 250 nM. In experiment [10], the Kd stood at 250 nM, the koff was found to be 0.0117 s⁻¹ and the kon came to 46800 M⁻¹ s⁻¹.

B14: pAC19 (2C6) (Fab, V domains shown)
VH: B9 VH with Y32F, S55T
VL: B9 VL with Q27K, T28N, S30G, A31T, L46P, R54P, Y55Q, R56I
B14 showed an equilibrium dissociation constant (Kd) in experiment [7] of 700 nM.

B15: antibody with affinity matured heavy chain variable region CH7A rF9 and parent light chain variable region CL1A (antibody, human IgG1, V domains shown)
VH: B9 VH
VL: B9 VL with T28N, S30G, A31T, L50S, R56S
notes: also called CH7A rF9, CL1A
With B15, the “EC50 (read off the curve)” value in [6] was around 0.7 mg/L.
